# Key:
# [1] = target: PAR-2 RING domain (C. elegans); test: SEC-MALS
# [2] = target: PAR-2 RING domain (C. elegans); test: AUC
substance,measurement,setting,value
PAR-2 RING domain (domain or fragment),stoichiometry N,[1],2
same,Kd,[2],0.358 µM

# Source: paper doi:10.1101/2023.08.10.552581
